For experiment [1], the target named is T1, hTSLP-His (human, UniProt Q969D9 29-159, limits assumed).
T1 construct: bought; also called hTSLP (ACROBiosystems TSP-H52Hb); not shown: His tag
Nature of the experiment: competition ELISA: antibody titrated and pre-incubated with 7 nM TSLP-His, then on a plate coated with 33.001 (Tezepelumab), anti-His detection; row head on the sheet reads EC50, unit from the axis. A general note: In an ELISA, binding on a coated surface is turned into a signal by an enzyme label.

The target in experiment [2] is T2, recombinant human IL-13 (human, UniProt P35225 35-146). The experiment can be described thus: cell-based or functional assay.
T2 sequence (P35225 35-146 limits assumed): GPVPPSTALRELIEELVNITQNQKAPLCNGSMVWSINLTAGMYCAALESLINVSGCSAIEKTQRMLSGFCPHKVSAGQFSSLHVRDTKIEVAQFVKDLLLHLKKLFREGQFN
The target of experiment [3] is T3, human TSLP (human, UniProt Q969D9 29-159). The experiment can be described thus: cell-based or functional assay.
The target in experiment [4] is T2, recombinant human IL-13. Nature of the experiment: SPR. Background: In SPR one partner is held on a chip, and binding of the other changes the refractive index at the surface.
The target of experiment [5] is T3, human TSLP. The experiment can be described thus: SPR.
Experiment [6] addresses T2, recombinant human IL-13. The experiment can be described thus: cell-based or functional assay. The source holds these as a separate data set.
Experiment [7] concerns the target T1, hTSLP-His. Nature of the experiment: competition ELISA, 7 nM TSLP-His pre-incubated with antibody; competitor Tezepelumab coated.
The target in experiment [8] is T2, recombinant human IL-13. The experiment can be described thus: SPR (Biacore T200), antibody captured, hIL-13 as analyte 0.35-5.93 nM.
Experiment [9] addresses T1, hTSLP-His. Nature of the experiment: cell-based or functional assay.
Experiment [10] has as its target T1, hTSLP-His. The experiment can be described thus: competition ELISA: antibody titrated and pre-incubated with 7 nM TSLP-His, then on a plate coated with 33.001 (Tezepelumab), anti-His detection; row head on the sheet reads EC50, unit from the axis. This is another data set of the same source.
Experiment [11] concerns the target T4, cynomolgus monkey (cyno) TSLP (cynomolgus monkey, UniProt A0A7N9CAT7 29-159).
T4 construct: also called cTSLP; cynomolgus TSLP
The experiment can be described thus: SPR.

Experiment [12] concerns the target T5, recombinant cynomolgus monkey IL-13 (cynomolgus monkey, UniProt Q0PW92 21-132).
T5 construct: bought; also called rc-IL-13; cIL-13
Nature of the experiment: SPR.

Experiment [13] addresses T3, human TSLP. The experiment can be described thus: SPR (Biacore T200), antibody captured, hTSLP as analyte 0.231-5.926 nM.
Experiment [14] has as its target T2, recombinant human IL-13. Nature of the experiment: SPR. This is another data set of the same source.
For experiment [15], the target named is T3, human TSLP. Nature of the experiment: SPR. This is another data set of the same source.
For experiment [16], the target named is T1, hTSLP-His. Nature of the experiment: cell-based or functional assay. This is another data set of the same source.
The target of experiment [17] is T1, hTSLP-His. Nature of the experiment: competition ELISA: antibody titrated and pre-incubated with 7 nM TSLP-His, then on a plate coated with 33.001 (Tezepelumab), anti-His detection; row head on the sheet reads EC50, unit from the axis. The source holds these as a separate data set.
The target in experiment [18] is T4, cynomolgus monkey (cyno) TSLP. The experiment can be described thus: SPR. The source holds these as a separate data set.
For experiment [19], the target named is T5, recombinant cynomolgus monkey IL-13. The experiment can be described thus: SPR. The source holds these as a separate data set.
Experiment [20] deals with T2, recombinant human IL-13. Nature of the experiment: SPR (Biacore T200), antibody captured, hIL-13 as analyte 0.35-8.89 nM.
Experiment [21] has as its target T3, human TSLP. Nature of the experiment: SPR (Biacore T200), antibody captured, hTSLP as analyte 0.231-5.926 nM. The source holds these as a separate data set.

Substitutions are numbered along the chain they refer to. Like-named read-outs stand apart in the source and are kept apart here.

Here are results for 7 molecules from patent publication US20240059769A1 (BIOLOJIC DESIGN, published 2024).

T5 sequence (Q0PW92 entry or part of it): as the sequence (P35225 35-146 limits assumed) above, with G1S, R10K, M42V, S67N, H83R, L100V counted along it
T4 sequence (A0A7N9CAT7 entry or part of it): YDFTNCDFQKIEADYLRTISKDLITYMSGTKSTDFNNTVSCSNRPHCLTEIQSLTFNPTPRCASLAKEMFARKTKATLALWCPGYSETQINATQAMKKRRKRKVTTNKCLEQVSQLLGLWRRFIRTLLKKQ

B1: BDG38.082 (antibody, V domains shown)
VH: QMQLVESGGGVVQPGRSLRLSCAASGFAFRTYGMHWVRQAPGKGLEWVAVIWDDGSNTHYADSVKGRFTITRDNSKNTLNLQMNSLRAEDTAVYYCVRAPQWYLTAEAFDLWGQGTMVTVSS
VL: SYVLTQPPSVSVAPGETATITCGGNMIGGYLVHWYQQKPGQAPVLVIYDDVDRPDRIPERFSGSNSGNTATLTISRVEAGDEADYYCQVWDHDTNQVVFGGGTKLTVL
notes: IgG1
Usually IC50 stands for the concentration at which inhibition is half-maximal. For orientation: Kd means the concentration at which binding is half-saturated. Usually koff stands for the first-order rate constant of dissociation. The term kon denotes a measure of how fast the partners come together. B1 had an IC50 in experiment [1] of 2.73 nM. For the same molecule, the “IC50 CD23” value in experiment [2] stood at 0.0391 nM. Also, the “IC50 TARC” value in [3] was 1.58 nM. Also, in experiment [4], the Kd worked out at 0.114 nM, the koff turned out to be 0.000956 s⁻¹ and the kon came out at 8.41e+06 M⁻¹ s⁻¹. Moreover, in experiment [5], the Kd was 0.0616 nM, the koff is 0.000158 s⁻¹ and the kon amounted to 2.56e+06 M⁻¹ s⁻¹. Further, in [6], the “HEK-IL-13 [nM] (IC50, STAT6 reporter)” value is 0.043 nM. Further, the IC50 in experiment [7] worked out at 2.7 nM.

B2: BDG38.074 (antibody, V domains shown)
VH: B1 VH
VL: B1 VL with E16Q, G29A, V44L, I47V, D55N, D93N, N95D, Q96K, V97M
notes: also called BDG38.74
For B2, the “IC50 CD23” value in experiment [2] was found to be 0.158 nM. In addition, in experiment [3], the “IC50 TARC” value was determined as 2.77 nM. For the same molecule, the Kd in experiment [8] amounted to 0.0295 nM; in [11] it was 0.00416 nM; in experiment [12], 0.733 nM; in experiment [13] it was 0.00334 nM; in experiment [14] it was 0.0295 nM; in experiment [15], 0.00334 nM. For the same molecule, the koff came out at 0.000249 s⁻¹ in [8]; 4.6e-05 s⁻¹ in experiment [11]; 0.00644 s⁻¹ in experiment [12]; 5.05e-05 s⁻¹ in [13]; 0.000249 s⁻¹ in [14]; 5.05e-05 s⁻¹ in experiment [15]. Further, the kon is 8.43e+06 M⁻¹ s⁻¹ in experiment [8]; 1.11e+07 M⁻¹ s⁻¹ in experiment [11]; 8.78e+06 M⁻¹ s⁻¹ in [12]; 1.51e+07 M⁻¹ s⁻¹ in experiment [13]; 8.43e+06 M⁻¹ s⁻¹ in experiment [14]; 1.51e+07 M⁻¹ s⁻¹ in experiment [15]. Further, in experiment [9], the “IC50, pSTAT5 in MUTZ-5 cell line” value is around 35 pM. The half-inhibitory concentration (IC50) in [10] and in experiment [7] was 3.66 nM in each case. The “HEK-IL-13 [nM] (IC50, STAT6 reporter)” value in experiment [6] stood at 0.0241 nM. In addition, in experiment [16], the “IC50 [pM], STAT5 phosphorylation inhibition in MUTZ5 cells” value turned out to be 46.7 pM.

B3: BDG38.080 (antibody, V domains shown)
VH: B1 VH with D53Y, N57A, T105S
VL: B1 VL with M26L, G29A, V51S, D93N, Q96H, V97M
notes: IgG1
Turning to B3, the “IC50 CD23” value in experiment [2] stood at 0.201 nM. Besides, in experiment [3], the “IC50 TARC” value is 0.79 nM. For the same molecule, in experiment [4], the Kd is 0.0716 nM, the koff was 0.00114 s⁻¹ and the kon is 1.59e+07 M⁻¹ s⁻¹. In experiment [5], this molecule gave a Kd of 0.00722 nM, a koff of 1.81e-05 s⁻¹ and a kon of 2.5e+06 M⁻¹ s⁻¹. This molecule gave an IC50 in [17] of 3.27 nM. For the same molecule, in experiment [6], the “HEK-IL-13 [nM] (IC50, STAT6 reporter)” value stood at 0.0592 nM. In addition, the “IC50 [pM], STAT5 phosphorylation inhibition in MUTZ5 cells” value in experiment [16] turned out to be 34.3 pM. The IC50 in [7] is 3.27 nM.

B4: BDG38.081 (antibody, V domains shown)
VH: B1 VH
VL: B1 VL with E16Q, T19R, G29A, V44L, D93N, N95Q, V97M
notes: IgG1
Regarding B4, the Kd in experiment [18] was determined as 0.00487 nM; in [4], 0.0509 nM; in [5], 0.0692 nM; in experiment [19], 0.844 nM. For the same molecule, the off-rate constant (koff) in experiment [18] stood at 4.36e-05 s⁻¹; in experiment [4], 0.000872 s⁻¹; in experiment [5], 0.000125 s⁻¹; in experiment [19] it was 0.00675 s⁻¹. The kon turned out to be 8.96e+06 M⁻¹ s⁻¹ in experiment [18], 1.71e+07 M⁻¹ s⁻¹ in experiment [4], 1.81e+06 M⁻¹ s⁻¹ in experiment [5] and 8e+06 M⁻¹ s⁻¹ in [19]. Besides, the IC50 in [1] turned out to be 2.21 nM; in experiment [7], 2.2 nM. In addition, the “IC50 CD23” value in [2] stood at 0.0339 nM. The “IC50 TARC” value in experiment [3] came out at 5.93 nM. In addition, the “HEK-IL-13 [nM] (IC50, STAT6 reporter)” value in experiment [6] worked out at 0.0483 nM. The “IC50 [pM], STAT5 phosphorylation inhibition in MUTZ5 cells” value in [16] was found to be 38.7 pM.

B5: BDG38.079 (antibody, V domains shown)
VH: B1 VH with D53Y
VL: B1 VL with V44L, T94S, Q96T, V97M
Turning to B5, the “IC50 CD23” value in experiment [2] stood at 0.0718 nM. Also, in experiment [3], the “IC50 TARC” value was 1.96 nM. Also, the “IC50, pSTAT5 in MUTZ-5 cell line” value in [9] is around 13 pM. In addition, the Kd was found to be 0.0317 nM in experiment [20]; 0.00397 nM in [11]; 0.901 nM in [12]; 0.0317 nM in experiment [14]; 0.00221 nM in experiment [15]; 0.00221 nM in experiment [21]. Besides, the koff was determined as 0.000385 s⁻¹ in experiment [20]; 4.08e-05 s⁻¹ in experiment [11]; 0.0141 s⁻¹ in experiment [12]; 0.000385 s⁻¹ in [14]; 3.27e-05 s⁻¹ in [15]; 3.27e-05 s⁻¹ in experiment [21]. For the same molecule, the kon is 1.22e+07 M⁻¹ s⁻¹ in experiment [20]; 1.03e+07 M⁻¹ s⁻¹ in experiment [11]; 1.56e+07 M⁻¹ s⁻¹ in experiment [12]; 1.22e+07 M⁻¹ s⁻¹ in experiment [14]; 1.48e+07 M⁻¹ s⁻¹ in experiment [15]; 1.48e+07 M⁻¹ s⁻¹ in experiment [21]. In addition, the IC50 in experiment [17] and in experiment [7] was 3.63 nM each time. For the same molecule, the “HEK-IL-13 [nM] (IC50, STAT6 reporter)” value in experiment [6] was determined as 0.0253 nM. In addition, in [16], the “IC50 [pM], STAT5 phosphorylation inhibition in MUTZ5 cells” value worked out at 21.8 pM.

B6: BDG38.083 (antibody, V domains shown)
VH: B1 VH with R19T, A28E, A49G, V97A
VL: SYILTQPPSVSVAPGQTATITCGGNLIGAKLVHWYQQKPGQAPVLVIYDDSDRPSRIPERFSGSNIGNTATLTISDVEEGDEADYYCQVWDYSSDTMVFGGGTKLTVL
notes: IgG1
As to B6, the IC50 in experiment [1] and in experiment [7] was 3.33 nM each time. In addition, the “IC50 CD23” value in experiment [2] is 0.0215 nM. For the same molecule, the “IC50 TARC” value in experiment [3] amounted to 11.4 nM. For the same molecule, the Kd was 0.0565 nM in [4] and 0.0983 nM in experiment [5]. The koff is 0.000401 s⁻¹ in experiment [4] and 0.000241 s⁻¹ in [5]. The results for the kon in experiment [4] and in experiment [5] were 7.09e+06 M⁻¹ s⁻¹ and 2.45e+06 M⁻¹ s⁻¹, respectively. For the same molecule, the “HEK-IL-13 [nM] (IC50, STAT6 reporter)” value in experiment [6] came out at 0.0419 nM.

B7: BDG38.078 (antibody, V domains shown)
VH: B1 VH with A28E, V48L, A49G, D53Y, A88V
VL: B6 VL with Q16E, K30R, S75E, D76R, E79A, S93Y, T96H
notes: IgG1
As to B7, in [2], the “IC50 CD23” value is 0.125 nM. Further, in experiment [3], the “IC50 TARC” value is 6.52 nM. For the same molecule, in [4], the Kd was found to be 0.0857 nM, the off-rate constant (koff) worked out at 0.000203 s⁻¹ and the on-rate constant (kon) came to 2.37e+06 M⁻¹ s⁻¹. In experiment [5], this molecule displayed a Kd of 0.000231 nM, a koff of 2.95e-07 s⁻¹ and a kon of 1.28e+06 M⁻¹ s⁻¹. Also, the IC50 in experiment [17] came to 4.3 nM. Besides, the “HEK-IL-13 [nM] (IC50, STAT6 reporter)” value in experiment [6] stood at 0.0508 nM. For the same molecule, the “IC50 [pM], STAT5 phosphorylation inhibition in MUTZ5 cells” value in [16] was 338 pM. The IC50 in experiment [7] is 4.3 nM.
